Measured values published in article PMC5490264 (Nature Communications, 2017).

B1: Halo-YscQ (natural protein)
chain: MSLLTLPQAKLSELSLRQRLSHYRQNYLWEEGKLELTVSEPPSSLNCILQLQWKGTHFTLYCFGDDLANWLTPDLLGAPFSTLPKELQLALLERQTVFLPKLVCNDIATASLSVTQPLLSLRLSRDNAHISFWLTSAEALFALLPARPNSERIPLPILLSLRWHKVYLTLDEVDSLRLGDVLLAPEGSGPNSPVLAYVGENPWGYFQLQSNKLEFIGMSHESDELNPKPLTDLNQLPVQVSFEVGRQILDWHTLTSLEPGSLIDLTTPVDGEVRLLANGRLLGHGRLVEIQGRLGVRIERLTEVTIS
notes: also called Halo-tagged YscQ; SctQ/YscQ

Tests used:
Halo-YscQ = target: B1; assay: affinity purification with mass spectrometry; as a1, but strains lacking YscD (ΔyscD; all soluble components diffuse in the cytosol); amounts normalized to the WT strain; one representative quantitative mass spectrometry experiment; details: partners not purified
[1] = target: the molecule itself; assay: as above

Binder	degree of interaction in the ΔyscD strain relative to the WT strain (Halo-YscQ)	degree of interaction in the ΔyscD strain relative to the WT strain [1]
YscN (enzyme, YscN (SctN), type III secretion ATPase, Yersinia enterocolitica; also called SctN/YscN; T3SS ATPase; source: endogenous, Y. enterocolitica lysate (pYV virulence plasmid)) MLSLDQIPHHIRHGIVGSRLIQIRGRVTQVTGTLLKAVVPGVRIGELCYLRNPDNSLSLQAEVIGFAQHQALLIPLGEMYGISSNTEVSPTGTMHQVGVGEHLLGQVLDGLGQPFDGGHLPEPAAWYPVYQDAPAPMSRKLITTPLSLGIRVIDGLLTCGEGQRMGIFAAAGGGKSTLLASLIRSAEVDVTVLALIGERGREVREFIESDLGEEGLRKAVLVVATSDRPSMERAKAGFVATSIAEYFRDQGKRVLLLMDSVTRFARAQREIGLAAGEPPTRRGYPPSVFAALPRLMERAGQSSKGSITALYTVLVEGDDMTEPVADETRSILDGHIILSRKLAAANHYPAIDVLRSASRVMNQIVSKEHKTWAGDLRRLLAKYEEVELLLQIGEYQKGQDKEADQAIERIGAIRGWLCQGTHELSHFNETLNLLETLTQ	~20%	
YscL (natural protein, YscL (SctL), negative regulator of the T3SS ATPase, Yersinia enterocolitica; untagged; also called SctL/YscL; negative regulator of the ATPase; source: endogenous, Y. enterocolitica lysate (strain expressing Halo-YscQ)) MSQTCQTGYAYMQPFVQIIPSNLSLACGLRILRAEDYQSSLTTEELISAAKQDAEKILADAQEVYEQQKQLGWQAGMDEARTLQATLIHETQLQCQQFYRHVEQQMSEVVLLAVRKILNDYDQVDMTLQVVREALALVSNQKQVVVRVNPDQAGTIREQIAKVHKDFPEISYLEVTADARLDQGGCILETEVGIIDASIDGQIEALSRAISTTLGQMKVTEEE	~50%	
B1		~50%
